In patent publication US20090286242A1, “MicroRNA Expression Profiling and Uses Thereof” (COLD SPRING HARBOR LABORATORY, priority 2007, published 2009):

How the values were obtained:
Comma-Dβ cells = test: ALDEFLUOR / Sca-1 FACS analysis of Comma-Dβ cell compartments; type: cell-based, mouse; conditions: ectopic expression in Comma-Dβ cells
miR-205 = test: Stem-loop qRT-PCR of mature miRNA in Wnt-1-expressing Comma-Dβ cells; type: cell-based, mouse; conditions: data not shown
Experimental: 1-4 μg of total RNA from sorted cells was used for small RNA cloning performed as described in Pfeffer et al, 2005 (incorporated by reference). Illumina 1G sequencing and analysis was performed as described Stark et al. 2007 (incorporated by reference). miRNA expression analyses mature miRNAs were quantified using the TaqMan MicroRNA Assays previously described by Chen et al., 2005 (Applied Biosystems, incorporated by reference).
Data was normalized to Actin using SuperScript III SYBR Green One-Step qRT-PCR system (Invitrogen). The experiments were repeated twice and all reactions were run in triplicate.

B1: Wnt-1: Wnt-1 ectopically expressed from an MSCV-hygro vector (Wnt-1MSCV) (protein, UniProt P04426 28-370, looked up)
Proto-oncogene Wnt-1: ANSSGRWWGIVNIASSTNLLTDSKSLQLVLEPSLQLLSRKQRRLIRQNPGILHSVSGGLQSAVRECKWQFRNRRWNCPTAPGPHLFGKIVNRGCRETAFIFAITSAGVTHSVARSCSEGSIESCTCDYRRRGPGGPDWHWGGCSDNIDFGRLFGREFVDSGEKGRDLRFLMNLHNNEAGRTTVFSEMRQECKCHGMSGSCTVRTCWMRLPTLRAVGDVLRDRFDGASRVLYGNRGSNRASRAELLRLEPEDPAHKPPSPHDLVYFEKSPNFCTYSGRLGTAGTAGRACNSSSPALDGCELLCCGRGHRTRTQRVTERCNCTFHWCCHVSCRNCTHTRVLHECL
- increase in the ALDH bright Sca-1 high population (Comma-Dβ cells): 3.5 fold
- miR-205 level compared to empty vector control cells (miR-205): 6 fold
